Data published in CN116406375A (UNIV SHANGHAI TECHNOLOGY, dated 2023).

Assays:
野生型SARS-CoV-2假病毒的刺突Δ19 = 野生型SARS-CoV-2假病毒的刺突Δ19 (SARS-CoV-2, UniProt P0DTC2 14-1254); assay: cell-based or functional assay
[1] = target: SARS-CoV-2刺突N501Y+D614G假病毒的刺突Δ19 (SARS-CoV-2, UniProt P0DTC2 14-1254); assay: cell-based or functional assay
[2] = target: 真SARS-CoV-2英国变异株(B.1.1.7)病毒的刺突 (SARS-CoV-2); assay: cell-based or functional assay
[3] = target: SARS-CoV-2 K417N+E484K+N501Y+D614G假病毒的刺突Δ19 (SARS-CoV-2, UniProt P0DTC2 14-1254); assay: cell-based or functional assay
[4] = target: SARS-CoV-2 B.1.617.2假病毒的刺突Δ19 (SARS-CoV-2); assay: cell-based or functional assay
SARS-CoV-2 S-RBD = target: T1, SARS-CoV-2 S-RBD (SARS-CoV-2, UniProt P0DTC2 319-541); assay: BLI, biotinylated S-RBD on SA sensor, 1:1 Langmuir model
T1 construct: also called WT S-RBD; 野生型(WT)S-RBD

K417N+E484K+N501Y RBD = target: T2, K417N+E484K+N501Y RBD (SARS-CoV-2, UniProt P0DTC2 319-541); assay: BLI, biotinylated B.1.351 S-RBD on SA sensor, 1:1 Langmuir model
T2 construct: also called B.1.351S-RBD; B.1.351的刺突RBD

| Binder | NT50, 假病毒中和 (野生型PSV) (野生型SARS-CoV-2假病毒的刺突Δ19) | NT50, 假病毒中和 (N501Y+D614G PSV) [1] | NT50, 真病毒中和 (B.1.1.7) [2] | NT50(B.1.351) [3] | NT50(B.1.617.2) [4] | Kd (SARS-CoV-2 S-RBD) | Kd (K417N+E484K+N501Y RBD) |
| --- | --- | --- | --- | --- | --- | --- | --- |
| S-E6 (antibody, V domains shown, also called S-E6二聚体; 二聚体S-E6) VH: QVTLRESGPGLVKPSETLSLTCAVSGGSLSSVNYYWSWIRQHPGKGLEWIGYIYYSGSTNYNPSLKSRVTMSLDTSKNQFSLKLSSVTAADTAVYYCATPGAIMGALHIWGQGTLVTVSS VL: QAVLTQPSSASSTPGQRVIISCSGSSSNIGSNTVSWYQQVPGAAPKLLIYFDYRRPSGVPDRFSGTRSGTSASLGISGLQSEDEADYYCAAWDDSLSAWVFGRGTKLTVLG | 0.025 nM | 0.021 nM | 1.15 nM | 0.32 nM | 0.065 nM | – | – |
| S-E6三聚体 (other, also called 三聚体S-E6) heavy (part 1 of 2): QVTLRESGPGLVKPSETLSLTCAVSGGSLSSVNYYWSWIRQHPGKGLEWIGYIYYSGSTNYNPSLKSRVTMSLDTSKNQFSLKLSSVTAADTAVYYCATPGAIMGALHIWGQGTLVTVSS heavy (part 2 of 2): GGGGSGGGGSGGGGSPGSGYIPEAPRDGQAYVRKDGEWVLLSTFLGHHHHHH light: QAVLTQPSSASSTPGQRVIISCSGSSSNIGSNTVSWYQQVPGAAPKLLIYFDYRRPSGVPDRFSGTRSGTSASLGISGLQSEDEADYYCAAWDDSLSAWVFGRGTKLTVLG | – | – | – | – | 0.007 nM | 0.0101 nM | 0.58 nM |
| S-B8 (antibody, V domains shown, also called S-B8二聚体) VH: QVQLVQSGGGLIQPGGSLRLSCAASGFTVSLSHMNWVRQAPGKGLEWVSITYGDGNSDYADSVKGRFTISRDNSKNTLYLQMNSLRAEDTAVYYCAREYYYGMDVWGQGTTVTVSS VL: not shown | – | 0.53 nM | – | 1.2 nM | 0.37 nM | – | – |
| S-B8三聚体 (other) heavy (part 1 of 2): QVQLVQSGGGLIQPGGSLRLSCAASGFTVSLSHMNWVRQAPGKGLEWVSITYGDGNSDYADSVKGRFTISRDNSKNTLYLQMNSLRAEDTAVYYCAREYYYGMDVWGQGTTVTVSS heavy (part 2 of 2): GGGGSGGGGSGGGGSPGSGYIPEAPRDGQAYVRKDGEWVLLSTFLGHHHHHH light: not shown | – | – | – | 0.35 nM | 0.15 nM | – | – |
| S-D4 (antibody, V domains shown, also called S-D4二聚体; S-D4 IgG4) VH: QVQLQESGGGVVQPGRSLRLSCEVSGFTFSDYGMHWVRQAPGKGLEWVAVIWSEGSTEYYADSVKGRFTISRDNSKDTLYLQMNSLRAEDTAVYYCARPGYPTSTDRSPAAAGARQYYYYGMDVWGQGTTVTVSS VL: NFMLTQPHSVSESPGKTVTISCTRSGGSGAANYVQWYQQRPGSSPTTLIYEDSRRPPGVPDRFSGSVDTSSNSASLTISGLQTEDEADYYCQSYDSSNHVVFGGGTKLTVLG | 0.48 nM | 0.042 nM | 1.88 nM | 0.66 nM | 0.24 nM | – | – |
